# Data taken from the DeepSol protein solubility set.
# Assay: soluble on expression in E. coli; label from the status in PepcDB or PDB records
row,Sequence,soluble on expression in E. coli
1,GPLGSALEIAEQLTLLDHLVFKSIPYEEFFGQGWMKAEKYERTPYIMKTTKHFNHVSNFIASEIIRNEDISARASAIEKWVAVADICRCLHNYNAVLEITSSINRSAIFRLKKTWLKVSKQTKSLLDKLQKLVSSDGRFKNLRESLRNCDPPCVPYLGMYLTDLVFIEEGTPNYTEDGLVNFSKMRMISHIIREIRQFQQTTYKIDPQPKVIQYLLDESFMLDEESLYESSLLIEPKLPT,soluble
2,MPKWGNINERRNQLHEVIRLSGMNLIIDDTDHPLIIKVASIQSARMQVYFIDNDDYFQNRLQTADENGVEYDDNDSRAIFYARGVLETVKKLRWCPDVIHCHGWMTALAPLYIKKAYKDEPSFRDAKVVFSVYEDDFKNTLSEDFATKLMLKGITKKDLAGLKEPVDYAALCKLAVDYSDGIIQNSAKVDESIIEYARQSGKLVLDYQDPENYANACNEFYDQVWETTTNKEEELEHHHHHH,soluble
3,MNKEKEQQLNEALVLFSFAYKTFTEEPDLIIKKYGIQRIHHRILFFVARFPGLSVNELLKLLEISKQALHKPMHILINKGLIFSKESDYDRRIKEIFLTNEGERLEKEISNIQREHLLSIFSQFHNGDEKSWLEIMRQLSLKRLGYAAWNKKK,not soluble
4,MGSSHHHHHHSSGLVPRGSHGLVPRGSHMSDDMSMGLPSSAGEHGVLRSMQEVAMSSQEASKMLRTYNIAWWGNNYYDVNELGHISVCPDPDVPEARVDLAQLVKTREAQGQRLPALFCFPQILQHRLRSINAAFKRARESYGYNGDYFLVYPIKVNQHRRVIESLIHSGEPLGLEAGSKAELMAVLAHAGMTRSVIVCNGYKDREYIRLALIGEKMGHKVYLVIEKMSEIAIVLDEAERLNVVPRLGVRARLASQGSGKWQSSGGEKSKFGLAATQVLQLVETLREAGRLDSLQLLHFHLGSQMANIRDIATGVRESARFYVELHKLGVNIQCFDVGGGLGVDYEGTRSQSDCSVNYGLNEYANNIIWAIGDACEENGLPHPTVITESGRAVTAHHTVLVSNIIGVERNEYTVPTAPAEDAPRALQSMWETWQEMHEPGTRRSLREWLHDSQMDLHDIHIGYSSGIFSLQERAWAEQLYLSMCHEVQKQLDPQNRAHRPIIDELQERMADKMYVNFSLFQSMPDAWGIDQLFPVLPLEGLDQVPERRAVLLDITCDSDGAIDHYIDGDGIATTMPMPEYDPENPPMLGFFMVGAYQEILGNMHNLFGDTEAVDVFVFPDGSVEVELSDEGDTVADMLQYVQLDPKTLLTQFRDQVKKTDLDAELQQQFLEEFEAGLYGYTYLEDE,soluble
5,MSQLVFIVFQDNDDSRYLAEAVMEDNPDAEMQHQPAMIRIQAEKRLVINRETMEEKLGRDWDVQEMLINVISIAGNVDEDDDHFILEWN,soluble
6,MGSDKIHHHHHHMSNVDHAEIAKFEALAHRWWDRESEFKPLHDINPLRVNWIDERAGLAGKKVLDIGCGGGILSEAMAQRGASVTGIDMGEAPLAVARLHQLESGVAVDYRQITAEQMAEEMPGQFDVVTCLEMLEHVPDPASVIRACHRLVKPGGQVFLSTINRNPKAYLFAVIGAEYILQLLPRGTHDFRKFIRPSELGAWSREAGLEVKDIIGLTYNPLTKHYKLANDVDVNYMVQTKREA,not soluble
7,MKRDGHTHTEFCPHGTHDDVEEMILKAIELDFDEYSIVEHAPLSSEFMKNTAGNQEAVTTASMSMSDLPYYFKKMNQMKKKYASDLLIHIGFEVDYLIGYEDFTRDFLNEYGPQTDDGVLSLHFLEGQGGFRSIDFTAEDYNEGIVQFYGGFEQAQLVYLAGVKQSIEADLGAFKPRRIGHISLCQKFQQFFGADGRDFTAEVIAEFEAILALVKKRGYELDFNTAGLFKPLCKETYPPKEIVTLARALEIPFVYGSDSHGVADIGRGYNTYCQK,not soluble
8,MARRNDHTREELVALTLDRVKQFLDTHSYHELSLRKVATMIGYVPSTLVNVFGNYNLLLLHVVAQTLDELAQEAQQAVKSTTYPKDALYQLAYCYHDFAKRNPYRWQLIFEHNMNGEMLPEWQAQRINNMTSMLEDLLKVIAPLRSEQEVLQASRVLWSGVHGITILSVDDKFFANEPIDGNALINNLLNHYLANW,not soluble
9,MGSSHHHHHHGKTIFVIVPTNEEQVAFLEALAKQDELNFDWQNPPTEPGQPVVILIPSDMVEWFLEMLKAKGIPFTVYVEEGGSENLYFQGGGGGGLSLPAFSPHCHSLRLGFHVFRKQRARTKTAAVAEQRGLRWTHTTARTAKSGWPPRGHTDTHTHTHTHTHITWEYASSGMTLVFEARRLPFGSISEVYAASIQPIVALHALDKLPLWDRCMLVAVLPVVQQRHSASAAAAPPSTVVRPSLTRNDSDNADAAAASLSSATVRAANHEERVNASPELAGAPSLEDVALALTIVRALDELEVVYDSSISTRAELEQQQQQQPSLPAASLAEAPRRAFKQPKKTSEELLMEQLLQERFTDTAPYLLESSDEGGENSADAAVDVAMCFTVKGESLGIGSATIFGGHGYHP,not soluble
10,MGGEQRETNLSIRGKAYIVGAFEHPLRYAPAHSVAQLHAECALGALADAGLTLADVDGYFCAGDAGASPATLVDHMNLRLRHVDGTEIGGGSYLALIGHAAQAIASGKCRVALITLAGKPRSAGQATGTEARQPGPDRPASAWEAPYRWTVAGIYGNFARRHMHEYGTTSEQLAWVKVAASHHAQHNEHALLRKVYSVEDVLASPMIADPLHRLDCCVITDGGGALVLAAPEVARSLARPRIRVLGCGETIRTNNGGHHADMLHTGAQRSGPAAFAEAGVTPADIKYASVYDNFTIMVIMQLEDLGFCEKGAGGRFVADGNLISGTGRLPWNTDGGGLCNNHPANRGGITKAIEAVRQLRGEAHPSVQVPNCDLALAAGPGLVFGVGHSHATVILERE,not soluble
11,KEELESIINSSPVIVFLWKYEEGWPIEFVSENVTRLGYEVEDFTSRKILYGNIVYPGDLEKVERELARNIEFGCEDYSSEYRILTKSGEVRWVDERTFIQRDEKGEIRLQGIILDIT,not soluble
12,MGSDKIHHHHHHMQLKQSIYFHSPIFLQNILTTIYGRVLYQERYGPVYQKRLQELKEKERFQTNAQAEQLARLNQFLLFCQTYSPYYQELFEQHRITLPLETLDELKQIPILSKEILRTRNADVHAKIRAPILGKTGGTTGKSIQVHYTKEDMQIRMAHLDYFKWTHGIERGMRRASFTGQTLAAESQKAPVYWRMNKAINQMLFTIKNINPQTAALYIEQLNRFNPESIDGLPSGMIEVARHAKKYNIPCTFRPKAIFPTAEMMTAAERQLIEEVFHAPIFDQYASSEGAPIVAECRYGKKHLHYEMGIIEVEEDGQILVTSFDTHGTPLVRYRVGDRMTLSEATCQCGHAGPVIASIDGRGRSFIQLKDGHRIFEGELAGIVRAFPNCIERVQYIQSDKEEIVMLYVPDERCFKEEHEKELYFVLKRLFGGQMEVLLRAVPEIPKEISGKTLLIKQLLLEKS,not soluble
13,PQKIFTPSAEIVKYTKIIAMEKLYAVFTDYEHDKVSRDEAVNKIRLDTEEHLKEKFPEVDQFEIIESFNIVAKEVFRSIILNEYKRCDGRD,soluble
14,MGSDKIHHHHHHMKVFTEKIPNIPWEERPEGYTGPVWRYSKNPIIGRNPVPKGARVFNSAVVPYNGEFVGVFRIDHKNTRPFLHFGRSKDGINWEIEPEEIQWVDVNGEPFQPSYAYDPRVVKIEDTYYITFCTDDHGPTIGVGMTKDFKTFVRLPNAYVPFNRNGVLFPRKINGKYVMLNRPSDNGHTPFGDIFLSESPDMIHWGNHRFVLGRSSYNWWENLKIGAGPYPIETSEGWLLIYHGVTLTCNGYVYSFGAALLDLDDPSKVLYRSRYYLLTPEEEYETVGFVPNVVFPCAALCDADTGRVAIYYGAADTHVALAFGYIDEIVDFVKRNSM,soluble
15,MANSLRNVNDYDPFKYRPSYFDLEAPTESFALGKFVDAIEVKQMALDAFSESSMVSIATSQLPKTAYTATSFIESEYYSFPYLFNDQKYYWDYFDYKIPAADFAVLELELDLNNQQDQQIKDHFIDPAIKAYKQLGDSTGLFATKPLTEYQNDTHYLLGYPVVPTDHTQLWECKQGAERFSYGYFYSNMARLTKNLRQGDPNAGSKTHIEYSNELLDKDSMDQGIVR,not soluble
16,MSLVMGQEKLYIEKELSWLSFNERVLQEAADKSNPLIERMRFLGIYSNNLDEFYKVRFAELKRRIIISEEQGSNAHSRHLLGKIQSRVLKADQEFDGLYNELLLEMARNQIFLINERQLSVNQQNWLRHYFKQYLRQHITPILINPDTDLVQFLKDDYTYLAVEIIRSDSIRYALLEIPSDKVPRFVNLPPEAPRRRKPMILLDNILRYCLDDIFKGFFDYDALNAYSMKMTRDAEYDLVHEMEASLMELMSSSLKQRLTAEPVRFVYQRDMPNALVEVLREKLTISRYDSIVPGGRYHNFKDFINFPNVGKANLVNKPLPRLRHIWFDKAQFRNGFDAIRERDVLLYYPYHTFEHVLELLRQASFDPSVLAIKINIYRVAKDSRIIDSMIHAAHNGKKVTVVVELQARFDEEANIHWAKRLTEAGVHVIFSAPGLKIHAKLFLISRKENGEVVRYAHIGTGNFNEKTARLYTDYSLLTADARITNEVRRVFNFIENPYRPVTFDYLMVSPQNSRRLLYEMVDREIANAQQGLPSGITLKLNNLVDKGLVDRLYAASSSGVPVNLLVRGMCSLIPNLEGISDNIRAISIVDRYLEHDRVYIFENGGDKKVYLSSADWMTRNIDYRIEVATPLLDPRLKQRVLDIIDILFSDTVKARYIDKELSNRYVPRGNRRKVRAQLAIYDYIKSLEQPEEGHHHHHH,soluble
17,MNEQPAACRIKVEALGAGFAPAAEQWAERLGLALQVDEAEFALQVGEQGLQLQQLGPDAPGPVRVDFVEGGAAHRRLYGGGSGQMIAKAVGVAQGVRPRVLDATAGLGKDGFVLATLGCEMSLIERQPLIGALLEDGLARAAQDAEVGPIVARMHLLKGNSIELMRNWQGEPPQVIYLDPMFPHREKSALVKKEMRLFRPLVGDDNDAPALLAAALALASHRVVVKRPRKAPCIEGPKPSHGLEGKSSRYDIYPKKALKALEHHHHHH,not soluble
18,MAHHHHHHMGADIKLLLIDFDGTLFVDKDIKVPSENIEAIKEAIEKGYMVSICTGRSKVGILSAFGEENLKKMNFYGMPGVYINGTIVYDQIGYTLLDETIETDVYAELISYLVENNLVNQTIFHRGESNYVTEDNKYSDFLQKMYSENRSIIIRHNEMLKYRTMNKLMIVLDPSESKTVIGNLKQKFKNKLTIFTTYNGHAEVNKLGHDKYTGINYLLKHYNISNDQVLVVGDAENDIAMLSHFKYSFAVANATNSAKSHAKCVLPLSHKEGAVAYLLKKVFDLKK,not soluble
19,MAHHHHHHMGTLEAGQQGPGSMSKLTVVASPLAPEAVGAYSQAIICNGMVYCSGQIGLDRKTGDFAGKTIEEQSKQVMTNLKYVLEEAGSSMDKVVKTTCLLADIKDFGVFNGIYAEAFGNHKPARACFAAAALPKGALVEVECIATL,soluble
20,MRGPLLPPTVPGWRSRAERFDMAVLEAYEPIERRWQERVSQLDIAVDEIPRIAAKDPESVQWPPEVIADGPIALARLIPAGVDVRGNATRARIVLFRKPIERRAKDTEELGELLHEILVAQVAIYLDVDPSVIDPTIDD,soluble
21,MQLRKMQTIKKEPAPLDPTSSSDKMLLLNSALAEVAEDLASGEDLLLNEGSMGKNKSSACRRKREFIPDEKKDAMYWEKRRKNNEAAKRSREKRRLNDLVLENKLIALGEENATLKAELLSLKLKFGLISSTAYAQEIQKLSNSTAVYFQDYQTSKAAVSSFVDEHEPAMVAGSCISVIKHSPQSSLSDVSEVSSVEHTQESPAQGGCRSPENKFPVIKQEPVELESFAREAREERGTYSTSIYQSYMGSSFSTYSHSPPLLQVHGSTSNSPRTSEADEGVVGKSSDGEDEQQVPKGPIHSPVELQRVHATVVKVPEVNPSALPHKLRIKAKAMQVKVEALDSEFEGMQKLSSPADAIAKRHFDLEKHGTSGMAHSSLPPFSVQVTNIQDWSLKSEHWHHKELSSKTQSSFKTGVVEVKDGGYKVSEAENLYLKQGIANLSAEVVSLKRFIATQPISASDSR,not soluble
